In patent US20100322937A1:

Columns and labels:
[1] = target: wtEGFR: full-length human EGFR with FLAG tag after the leader, on BaF/3 cells (human) (UniProt P00533); test: FACS, wtEGFR-BaF/3 cells after mock preincubation, antibody at 10 µg/ml
[2] = target: wtEGFR: full-length human EGFR with FLAG tag after the leader, on BaF/3 cells (human) (UniProt P00533); test: FACS median fluorescence, wtEGFR-BaF/3 cells preincubated with EGF (10 ng/ml, 4 C, 15 min)
[3] = target: wtEGFR: full-length human EGFR with FLAG tag after the leader, on BaF/3 cells (human) (UniProt P00533); test: FACS median fluorescence, wtEGFR-BaF/3 cells preincubated with mAb[…] (10 µg/ml, 37 C, 1 hr)
[4] = target: EGFR 273-621 E293K, yeast surface displayed (UniProt P00533); test: from titration on yeast surface displayed fragments
[5] = target: EGFR 273-621 C287R, yeast surface displayed (UniProt P00533); test: as above
[6] = target: EGFR 273-621 C287R, yeast surface displayed (UniProt P00533); test: titration on yeast surface displayed fragment, flow cytometry, global fit of three data sets
[7] = target: wild-type EGFR 273-621 (C283A template), yeast surface displayed, C-terminal c-myc tag (UniProt P00533); test: as above

Sequence of monoclonal antibody 806 (mAb 806), murine IgG2b anti-EGFR (VH): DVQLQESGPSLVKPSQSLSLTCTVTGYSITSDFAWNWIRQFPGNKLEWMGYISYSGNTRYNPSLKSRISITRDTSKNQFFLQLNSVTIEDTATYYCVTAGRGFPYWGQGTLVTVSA
Sequence of monoclonal antibody 806 (mAb 806), murine IgG2b anti-EGFR (VL): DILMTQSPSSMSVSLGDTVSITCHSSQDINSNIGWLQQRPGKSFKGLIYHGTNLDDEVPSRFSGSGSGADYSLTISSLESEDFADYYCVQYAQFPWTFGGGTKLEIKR

Row | median fluorescence [1] | change (%) in antibody reactivity after preincubation [2] [%] | change (%) in antibody reactivity after preincubation [3] [%] | ΔΔG compared to wild-type [4] [kcal/mol] | ΔΔG compared to wild-type [5] [kcal/mol] | Kd [6] [nM] | Kd [7] [nM] | Substance
1 | 112 | -23 | -3 |  |  |  |  | monoclonal antibody 528 (mAb 528), IgG2a anti-EGFR
2 | 7 | -48 | 163 | 5.7 | 2.4 | 127 | 2.13 | monoclonal antibody 806 (mAb 806), murine IgG2b anti-EGFR
